What all share (test): flow cytometry, transfected cells
For orientation: A flow cytometer gives signals particle by particle.

Substrate in assay [1]: ICOS (Homo sapiens (Human)) (UniProt Q9Y6W8)
In a further assay the target is CD28 (human) (UniProt P10747).
Assay [2] addresses CTLA-4 (Homo sapiens (Human)) (UniProt P16410).

CTLA-4 (Homo sapiens (Human)), sequence (P16410 36-223): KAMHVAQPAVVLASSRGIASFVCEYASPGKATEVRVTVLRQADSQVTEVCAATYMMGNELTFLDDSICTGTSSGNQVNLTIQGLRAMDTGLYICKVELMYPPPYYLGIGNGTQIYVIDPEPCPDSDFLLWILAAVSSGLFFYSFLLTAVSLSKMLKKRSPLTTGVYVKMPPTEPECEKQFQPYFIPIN
ICOS (Homo sapiens (Human)), sequence (Q9Y6W8 21-199 limits assumed): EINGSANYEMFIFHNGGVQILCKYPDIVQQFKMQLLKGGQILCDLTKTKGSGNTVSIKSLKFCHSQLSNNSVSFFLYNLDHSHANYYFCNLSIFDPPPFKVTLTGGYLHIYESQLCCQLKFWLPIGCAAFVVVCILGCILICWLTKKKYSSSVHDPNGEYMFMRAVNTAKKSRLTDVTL

B1: ICOSL-Fc N52M/N57W/Q100P (Fc fusion)
chain: DTQEKEVRAMVGSDVELSCACPEGSRFDLNDVYVYWQTSESKTVVTYHIPQMSSLEWVDSRYRNRALMSPAGMLRGDFSLRLFNVTPQDEQKFHCLVLSPSLGFQEVLSVEVTLHVAANFSVPVVSAPHSPSQDELTFTCTSINGYPRPNVYWINKTDNSLLDQALQNDTVFLNMRGLYDVVSVLRIARTPSVNIGCCIENVLLQQNLTVGSQTGNDIGERDKITENPVSTGEKNAAT
As to B1, the MFI was found to be 322000 MFI in assay [1], 168000 MFI with CD28 (human) and 343000 MFI in assay [2]. Also, the MFI ratio to WT (ΔWT) in assay [1] came to 1.52 fold; with CD28 (human), 7.5 fold; in assay [2], 1.04 fold.

B2: ICOSL-Fc N52Q/N57S/Q100A (Fc fusion)
chain: DTQEKEVRAMVGSDVELSCACPEGSRFDLNDVYVYWQTSESKTVVTYHIPQQSSLESVDSRYRNRALMSPAGMLRGDFSLRLFNVTPQDEQKFHCLVLSASLGFQEVLSVEVTLHVAANFSVPVVSAPHSPSQDELTFTCTSINGYPRPNVYWINKTDNSLLDQALQNDTVFLNMRGLYDVVSVLRIARTPSVNIGCCIENVLLQQNLTVGSQTGNDIGERDKITENPVSTGEKNAAT
Regarding B2, the results for the MFI (in assay [1]; with CD28 (human); in assay [2]) were 263000 MFI, 91300 MFI and 315000 MFI, respectively. The figures for the MFI ratio to WT (ΔWT) (in assay [1]; in the assay with CD28 (human); in assay [2]) were 1.24 fold, 4.1 fold and 0.95 fold, respectively.

B3: ICOSL-Fc N52S/N57Y/Q100M (Fc fusion)
chain: DTQEKEVRAMVGSDVELSCACPEGSRFDLNDVYVYWQTSESKTVVTYHIPQSSSLEYVDSRYRNRALMSPAGMLRGDFSLRLFNVTPQDEQKFHCLVLSMSLGFQEVLSVEVTLHVAANFSVPVVSAPHSPSQDELTFTCTSINGYPRPNVYWINKTDNSLLDQALQNDTVFLNMRGLYDVVSVLRIARTPSVNIGCCIENVLLQQNLTVGSQTGNDIGERDKITENPVSTGEKNAAT
On to B3, for which the figures for the MFI (in assay [1]; in the assay with CD28 (human); in assay [2]) were 303000 MFI, 157000 MFI and 395000 MFI, respectively. Besides, the MFI ratio to WT (ΔWT) in assay [1] was found to be 1.43 fold; in the assay with CD28 (human), 7 fold; in assay [2], 1.2 fold.

B4: ICOSL-Fc N52R/N57Y/Q100S (Fc fusion)
chain: DTQEKEVRAMVGSDVELSCACPEGSRFDLNDVYVYWQTSESKTVVTYHIPQRSSLEYVDSRYRNRALMSPAGMLRGDFSLRLFNVTPQDEQKFHCLVLSSSLGFQEVLSVEVTLHVAANFSVPVVSAPHSPSQDELTFTCTSINGYPRPNVYWINKTDNSLLDQALQNDTVFLNMRGLYDVVSVLRIARTPSVNIGCCIENVLLQQNLTVGSQTGNDIGERDKITENPVSTGEKNAAT
B4: the MFI in assay [1] turned out to be 229000 MFI; in the assay with CD28 (human) it was 133000 MFI; in assay [2], 504000 MFI. In addition, the MFI ratio to WT (ΔWT) in assay [1] worked out at 1.08 fold; in the assay with CD28 (human), 6 fold; in assay [2], 1.53 fold.

B5: ICOSL-Fc N52S/N57L/Q100S (Fc fusion)
chain: DTQEKEVRAMVGSDVELSCACPEGSRFDLNDVYVYWQTSESKTVVTYHIPQSSSLELVDSRYRNRALMSPAGMLRGDFSLRLFNVTPQDEQKFHCLVLSSSLGFQEVLSVEVTLHVAANFSVPVVSAPHSPSQDELTFTCTSINGYPRPNVYWINKTDNSLLDQALQNDTVFLNMRGLYDVVSVLRIARTPSVNIGCCIENVLLQQNLTVGSQTGNDIGERDKITENPVSTGEKNAAT
On to B5, for which the MFI turned out to be 269000 MFI in assay [1], 108000 MFI with CD28 (human) and 197000 MFI in assay [2]. The figures for the MFI ratio to WT (ΔWT) (in assay [1]; in the assay with CD28 (human); in assay [2]) were 1.27 fold, 4.8 fold and 0.6 fold, respectively.

B6: ICOSL-Fc N52Q/N57F (Fc fusion)
chain: DTQEKEVRAMVGSDVELSCACPEGSRFDLNDVYVYWQTSESKTVVTYHIPQQSSLEFVDSRYRNRALMSPAGMLRGDFSLRLFNVTPQDEQKFHCLVLSQSLGFQEVLSVEVTLHVAANFSVPVVSAPHSPSQDELTFTCTSINGYPRPNVYWINKTDNSLLDQALQNDTVFLNMRGLYDVVSVLRIARTPSVNIGCCIENVLLQQNLTVGSQTGNDIGERDKITENPVSTGEKNAAT
B6: the figures for the MFI (in assay [1]; with CD28 (human); in assay [2]) were 192000 MFI, 131000 MFI and 367000 MFI, respectively. In addition, the MFI ratio to WT (ΔWT) came out at 0.91 fold in assay [1], 5.9 fold with CD28 (human) and 1.11 fold in assay [2].

B7: ICOSL-Fc N52R/N57L/Q100A (Fc fusion)
chain: DTQEKEVRAMVGSDVELSCACPEGSRFDLNDVYVYWQTSESKTVVTYHIPQRSSLELVDSRYRNRALMSPAGMLRGDFSLRLFNVTPQDEQKFHCLVLSASLGFQEVLSVEVTLHVAANFSVPVVSAPHSPSQDELTFTCTSINGYPRPNVYWINKTDNSLLDQALQNDTVFLNMRGLYDVVSVLRIARTPSVNIGCCIENVLLQQNLTVGSQTGNDIGERDKITENPVSTGEKNAAT
As for B7, the values for the MFI (in assay [1]; in the assay with CD28 (human); in assay [2]) were 308000 MFI, 119000 MFI and 403000 MFI, respectively. Further, the MFI ratio to WT (ΔWT) in assay [1] was determined as 1.45 fold; with CD28 (human) it was 5.3 fold; in assay [2], 1.22 fold.

B8: ICOSL-Fc N52S/N57M/Q100S (Fc fusion)
chain: DTQEKEVRAMVGSDVELSCACPEGSRFDLNDVYVYWQTSESKTVVTYHIPQSSSLEMVDSRYRNRALMSPAGMLRGDFSLRLFNVTPQDEQKFHCLVLSSSLGFQEVLSVEVTLHVAANFSVPVVSAPHSPSQDELTFTCTSINGYPRPNVYWINKTDNSLLDQALQNDTVFLNMRGLYDVVSVLRIARTPSVNIGCCIENVLLQQNLTVGSQTGNDIGERDKITENPVSTGEKNAAT
Turning to B8, the MFI in assay [1] was determined as 312000 MFI; in the assay with CD28 (human), 134000 MFI; in assay [2], 228000 MFI. Moreover, the MFI ratio to WT (ΔWT) in assay [1] came out at 1.47 fold; with CD28 (human), 6 fold; in assay [2] it was 0.69 fold.

B9: ICOSL-Fc N52S/N57Y/Q100S (Fc fusion)
chain: DTQEKEVRAMVGSDVELSCACPEGSRFDLNDVYVYWQTSESKTVVTYHIPQSSSLEYVDSRYRNRALMSPAGMLRGDFSLRLFNVTPQDEQKFHCLVLSSSLGFQEVLSVEVTLHVAANFSVPVVSAPHSPSQDELTFTCTSINGYPRPNVYWINKTDNSLLDQALQNDTVFLNMRGLYDVVSVLRIARTPSVNIGCCIENVLLQQNLTVGSQTGNDIGERDKITENPVSTGEKNAAT
Regarding B9, the figures for the MFI (in assay [1]; in the assay with CD28 (human); in assay [2]) were 224000 MFI, 161000 MFI and 205000 MFI, respectively. For the same molecule, the MFI ratio to WT (ΔWT) is 1.06 fold in assay [1], 7.2 fold with CD28 (human) and 0.62 fold in assay [2].

B10: ICOSL-Fc N52S/N57H/Q100E (Fc fusion)
chain: DTQEKEVRAMVGSDVELSCACPEGSRFDLNDVYVYWQTSESKTVVTYHIPQSSSLEHVDSRYRNRALMSPAGMLRGDFSLRLFNVTPQDEQKFHCLVLSESLGFQEVLSVEVTLHVAANFSVPVVSAPHSPSQDELTFTCTSINGYPRPNVYWINKTDNSLLDQALQNDTVFLNMRGLYDVVSVLRIARTPSVNIGCCIENVLLQQNLTVGSQTGNDIGERDKITENPVSTGEKNAAT
In the case of B10, the values for the MFI (in assay [1]; with CD28 (human); in assay [2]) were 258000 MFI, 117000 MFI and 302000 MFI, respectively. For the same molecule, the MFI ratio to WT (ΔWT) in assay [1] is 1.22 fold; with CD28 (human) it was 5.2 fold; in assay [2], 0.92 fold.
